The values that follow come from paper PMC9388150 (Proceedings of the National Academy of Sciences of the …, 2022).

For series [1], the target named is CeOSM-3^G444E (C. elegans) (UniProt P46873).
Series [2] deals with full-length TtKin5 kinesin-2 (T. thermophila) (UniProt Q7YUC7).
Series [3] deals with the molecule itself. Nature of the series: SEC-MALS.

Sequence of CeOSM-3^G444E (C. elegans) (P46873 whole entry G444E): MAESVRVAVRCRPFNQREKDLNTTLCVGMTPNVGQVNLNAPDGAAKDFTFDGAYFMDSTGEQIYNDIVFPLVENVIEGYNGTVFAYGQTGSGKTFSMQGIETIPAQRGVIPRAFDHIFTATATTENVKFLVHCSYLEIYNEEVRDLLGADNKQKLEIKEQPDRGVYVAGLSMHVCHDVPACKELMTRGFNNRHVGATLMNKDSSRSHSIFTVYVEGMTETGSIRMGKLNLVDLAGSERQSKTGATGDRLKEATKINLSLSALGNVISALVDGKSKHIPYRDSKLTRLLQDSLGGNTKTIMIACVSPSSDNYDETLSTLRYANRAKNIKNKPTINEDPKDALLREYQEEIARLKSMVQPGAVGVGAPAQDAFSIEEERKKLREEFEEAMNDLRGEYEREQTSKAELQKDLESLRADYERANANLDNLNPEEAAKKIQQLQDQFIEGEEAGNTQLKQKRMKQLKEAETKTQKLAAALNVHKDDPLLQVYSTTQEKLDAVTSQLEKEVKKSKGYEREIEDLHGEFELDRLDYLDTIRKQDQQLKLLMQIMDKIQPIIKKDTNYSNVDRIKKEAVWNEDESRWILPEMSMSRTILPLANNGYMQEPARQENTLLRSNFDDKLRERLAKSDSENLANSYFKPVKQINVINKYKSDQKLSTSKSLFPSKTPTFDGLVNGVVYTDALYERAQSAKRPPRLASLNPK

On to “CeIFT70/52 adaptor complex (from UniProt Q8I7G4 1-656)”, for which the velocity of CeOSM-3^G444E with CeIFT70/52 in single-molecule transport assays in series [1] came out at 1.7 µm/s.
With TtIFT70 (natural protein), the velocity of TtKin5 with TtIFT70 in single-molecule transport assays in series [2] was found to be 1.5 µm/s.
Regarding TtIFT70/52 adaptor complex, the velocity of TtKin5 with TtIFT70/52 in single-molecule transport assays in series [2] was determined as 2 µm/s.

B1: full-length TtKin5 kinesin-2 (natural protein, T. thermophila, UniProt Q7YUC7 1-836, looked up)
chain: MSSETVKVMVRARPMNKLEISKGCANIVQVDPQTNQIILSNGKDAEAAKVFTYDYVFPPDIQQQTVYENSAFPLVESVVEGYNGTIFAYGQTGCGKTHSMLGKPNDEVEKGIIPRTFSHIINIVESANDKNFLVRCSYIEIYNEEIHDLLGKDAKARMDLKEYPDKGVFVKDLTMNVVKTVAEMEKWMNIGTENRSVGATAMNKDSSRSHSIFTLYIECSYKVEGDTEDHITAGKLNLVDLAGSERQSKTQATGDRLKEATKINLSLSALGNVISALVDGKSQHVPYRDSKLTRLLQDSLGGNTKTIMIAAISPADYNYEETLSTLRYASRAKNIKNQPKVNQDPKDALLKEYADEIKKLKEMLLKQQAGEQVNFNAVVNGNGQQQPQLAIQHSSSHVMNSSEVKKLKEKNDALNAERQQIEEEVKNKEKLFQQQMQEKLMIEQKLKEVEQKFIVGGTADQDKKKKISQMRNKLKKQMQEHEKIQEELKQKDEEFENLEIKYSSLQEELDATKKKVKKLNQKYKQAQSEIKDLEKEHEIQKEDLLDTIRYQQREVKILMSICQMLLTPDEIEIIKGQGEWQDDYQVYKLPPFYFKQKKLNFPKLPAAQAMDMIDQEKQSREIDFMRQNNNFDNRQNNNHQNGNSHSHSNSIKRIPSGTMDNFEDMNKFQFGNGPAKSNNTSRYNNGFQNGSDEFDLSKYDAGGGNSLHSIQESLKEKNNSPNIRIKKAHKVQQQPEKQRIPNVSLDPIESQRISQQKLMGLQDSHFLEPSFQGGEQRRSKNIQLQPIQARPLSNSQTVMNLNQLNKNNINMNSIDFDQIANKTPNRVKLDKIQVPR
Turning to B1, in series [3], the “stoichiometry N” value amounted to 2.
